This note sets out measurements from publication PMC5349785 (Molecular Biology of the Cell, 2017).

Test [1] addresses T1, CSC with GFP-tagged Vps29 (CSC-GFP) (S. cerevisiae, UniProt P34110;P40335;P38759). As to the kind of experiment: recruitment to giant unilamellar vesicles.
Test [2] has as its target T1, CSC with GFP-tagged Vps29 (CSC-GFP). As to the kind of experiment: pull-down.

T1 sequence (P34110 whole entry, chain 1 of 3): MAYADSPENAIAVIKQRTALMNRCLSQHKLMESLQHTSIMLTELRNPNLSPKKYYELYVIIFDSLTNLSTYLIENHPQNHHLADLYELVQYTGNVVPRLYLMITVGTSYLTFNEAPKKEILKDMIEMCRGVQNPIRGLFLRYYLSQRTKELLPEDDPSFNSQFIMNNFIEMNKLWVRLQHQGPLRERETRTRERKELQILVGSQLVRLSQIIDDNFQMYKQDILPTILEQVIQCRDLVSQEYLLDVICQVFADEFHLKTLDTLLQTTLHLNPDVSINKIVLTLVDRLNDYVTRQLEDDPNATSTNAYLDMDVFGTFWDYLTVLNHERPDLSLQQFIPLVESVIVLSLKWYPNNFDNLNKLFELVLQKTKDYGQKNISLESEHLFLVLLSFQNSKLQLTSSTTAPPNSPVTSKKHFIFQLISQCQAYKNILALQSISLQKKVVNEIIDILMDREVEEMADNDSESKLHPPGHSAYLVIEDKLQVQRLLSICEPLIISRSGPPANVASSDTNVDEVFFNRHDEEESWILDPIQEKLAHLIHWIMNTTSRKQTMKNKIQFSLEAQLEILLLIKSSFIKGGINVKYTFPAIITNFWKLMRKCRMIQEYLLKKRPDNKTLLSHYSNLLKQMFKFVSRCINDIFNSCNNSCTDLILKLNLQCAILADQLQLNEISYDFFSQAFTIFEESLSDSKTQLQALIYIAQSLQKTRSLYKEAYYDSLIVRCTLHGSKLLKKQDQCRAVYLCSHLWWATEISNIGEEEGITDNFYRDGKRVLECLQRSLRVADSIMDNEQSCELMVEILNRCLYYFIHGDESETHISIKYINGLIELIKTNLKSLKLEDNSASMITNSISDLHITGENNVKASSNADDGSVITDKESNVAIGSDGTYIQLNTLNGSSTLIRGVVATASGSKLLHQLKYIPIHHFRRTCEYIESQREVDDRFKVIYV
T1 sequence (P40335 whole entry, chain 2 of 3): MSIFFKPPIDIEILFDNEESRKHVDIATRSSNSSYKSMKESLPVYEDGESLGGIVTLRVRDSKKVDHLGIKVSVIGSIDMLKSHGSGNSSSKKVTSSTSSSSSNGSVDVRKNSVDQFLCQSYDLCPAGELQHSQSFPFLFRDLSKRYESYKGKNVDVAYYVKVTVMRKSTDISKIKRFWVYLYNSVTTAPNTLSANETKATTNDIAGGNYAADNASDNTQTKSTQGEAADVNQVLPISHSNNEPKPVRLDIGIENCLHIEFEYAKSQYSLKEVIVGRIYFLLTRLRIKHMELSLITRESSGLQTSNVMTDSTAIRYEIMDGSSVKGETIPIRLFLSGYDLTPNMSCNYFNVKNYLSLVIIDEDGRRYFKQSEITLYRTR
T1 sequence (P38759 whole entry, chain 3 of 3): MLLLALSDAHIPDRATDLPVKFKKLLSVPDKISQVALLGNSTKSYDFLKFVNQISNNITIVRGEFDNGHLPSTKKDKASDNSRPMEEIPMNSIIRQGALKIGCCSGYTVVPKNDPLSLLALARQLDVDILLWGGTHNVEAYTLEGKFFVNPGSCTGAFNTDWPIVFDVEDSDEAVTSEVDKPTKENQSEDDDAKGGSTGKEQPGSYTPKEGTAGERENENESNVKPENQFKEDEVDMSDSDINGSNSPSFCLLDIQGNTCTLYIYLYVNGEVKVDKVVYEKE

B1: cytosolic domain of Vps10 (residues 1415-1579), His-tagged (domain or fragment)
chain: YDRGIRRNGGFARFGEIRLGDDGLIENNNTDRVVNNIVKSGFYVFSNIGSLLQHTKTNIAHAISKIRGRFGNRTGPSYSSLIHDQFLDEADDLLAGHDEDANDLSSFMDQGSNFEIEEDDVPTLEEEHTSYTDQPTTTDVPDTLPEGNEENIDRPDSTAPSNENQ
modifications: Cy5 label (Cyc-5 amine derivative) in Figures 3 and 4
B1: the binding result in test [1] is given as “binds”.

B2: N-terminal fragment of Vps5 (residues 1-280) (domain or fragment)
chain: MDYEDNLEAPVWDELNHEGDKTQSLVSNSIESIGQISTNEERKDNELLETTASFADKIDLDSAPEWKDPGLSVAGNPQLEEHDNSKADDLINSLAPEQDPIADLKNSTTQFIATRESGGALFTGNANSPLVFDDTIYDANTSPNTSKSISGRRSGKPRILFDSARAQRNSKRNHSLKAKRTTASDDTIKTPFTDPLKKAEKENEFVEEPLDDRNERRENNEGKFTASVEKNILEQVDRPLYNLPQTGANISSPAEVEENSEKFGKTKIGSKVPPTEKAVA
With B2, the binding result in test [2] is recorded as “binds”.

B3: fluorescently labeled Ypt7 without His tag (natural protein)
chain: MSSRKKNILKVIILGDSGVGKTSLMHRYVNDKYSQQYKATIGADFLTKEVTVDGDKVATMQVWDTAGQERFQSLGVAFYRGADCCVLVYDVTNASSFENIKSWRDEFLVHANVNSPETFPFVILGNKIDAEESKKIVSEKSAQELAKSLGDIPLFLTSAKNAINVDTAFEEIARSALQQNQADTEAFEDDYNDAINIRLDGENNSCSC
modifications: fluorescent label: ATTO (legend of Figure 5); DY-647 maleimide derivative (methods)
Regarding B3, the binding result in test [1] is given as “binds”.

B4: SNX-BAR complex with GFP-tagged Vps17 (SNX-BAR-GFP) (complex)
chain 1: MDYEDNLEAPVWDELNHEGDKTQSLVSNSIESIGQISTNEERKDNELLETTASFADKIDLDSAPEWKDPGLSVAGNPQLEEHDNSKADDLINSLAPEQDPIADLKNSTTQFIATRESGGALFTGNANSPLVFDDTIYDANTSPNTSKSISGRRSGKPRILFDSARAQRNSKRNHSLKAKRTTASDDTIKTPFTDPLKKAEKENEFVEEPLDDRNERRENNEGKFTASVEKNILEQVDRPLYNLPQTGANISSPAEVEENSEKFGKTKIGSKVPPTEKAVAFKVEVKDPVKVGELTSIHVEYTVISESSLLELKYAQVSRRYRDFRWLYRQLQNNHWGKVIPPPPEKQSVGSFKENFIENRRFQMESMLKKICQDPVLQKDKDFLLFLTSDDFSSESKKRAFLTGSGAINDSNDLSEVRISEIQLLGAEDAAEVLKNGGIDAESHKGFMSISFSSLPKYNEADEFFIEKKQKIDELEDNLKKLSKSLEMVDTSRNTLAASTEEFSSMVETLASLNVSEPNSELLNNFADVHKSIKSSLERSSLQETLTMGVMLDDYIRSLASVKAIFNQRSKLGYFLVVIENDMNKKHSQLGKLGQNIHSEKFREMRKEFQTLERRYNLTKKQWQAVGDKIKDEFQGFSTDKIREFRNGMEISLEAAIESQKECIELWETFYQTNL
chain 2: MTSAVPYDPYDDLDNNPFAEPQEEDSEPAATTTDGSSSMSEERVGTEQTAASVQDNGTANNIQNGLGEEGNATRSKTSNEHNENQQPSQPSERVILPERSDEKKKYTLLAKVTGLERFGSATGKKENPTIIFDCSTNLPTFRKQQYKNVKKSYEEFHQLFKYLNVAIQESFVPTLPSAYTTFGINSEEDRMKVTRNFQLWFNRLSQDPLIIRNEEVAFFIESDFNTYTPINKSKSLASGLKRKTLKQLAPPYDEITELAEFRPLVKSIYVVSQSLQEKLLRVSRNRKMMVQEENAFGQDFVNLDEHNKLYRRYGKILTAVGDIDSIIATMDMATLYDGLEWIVRDAYAVKEALTNRHFIMRNLVQAQQNSKAKQEQARRFRSRRDINPMKIDEALRQLKAAAKNEQVLTLKLQRITSNMIIERKQWISWYEEWIRSSIKEFTLRKIEYERKKLTLLERVRSDIRKADENGGLSRLGRHAVSNNNSDTSQTLKGDSWTGESNRKSQIPINKIAHTEFDDELFTEDDGYNSQDSDTTSLNARHAASLLGMSTK
As for B4, the binding result in test [2] is on record as “binds”.

B5: SNX-BAR complex (Vps5-Vps17 heterodimer) (complex)
chain 1: B4 chain 1
chain 2: B4 chain 2
Consider B5, for which the binding result in test [1] is “binds”.
